From paper doi:10.1101/2022.02.09.479746 (bioRxiv, 2022)

Target: the molecule itself
Assay: SEC

B1: full-length FLAG-DFCP1 (Double FYVE Domain Containing Protein 1) (natural protein, human, UniProt Q9HBF4 1-777, looked up)
chain: MSAQTSPAEKGLNPGLMCQESYACSGTDEAIFECDECCSLQCLRCEEELHRQERLRNHERIRLKPGHVPYCDLCKGLSGHLPGVRQRAIVRCQTCKINLCLECQKRTHSGGNKRRHPVTVYNVSNLQESLEAEEMDEETKRKKMTEKVVSFLLVDENEEIQVTNEEDFIRKLDCKPDQHLKVVSIFGNTGDGKSHTLNHTFFYGREVFKTSPTQESCTVGVWAAYDPVHKVAVIDTEGLLGATVNLSQRTRLLLKVLAISDLVIYRTHADRLHNDLFKFLGDASEAYLKHFTKELKATTARCGLDVPLSTLGPAVIIFHETVHTQLLGSDHPSEVPEKLIQDRFRKLGRFPEAFSSIHYKGTRTYNPPTDFSGLRRALEQLLENNTTRSPRHPGVIFKALKALSDRFSGEIPDDQMAHSSFFPDEYFTCSSLCLSCGVGCKKSMNHGKEGVPHEAKSRCRYSHQYDNRVYTCKACYERGEEVSVVPKTSASTDSPWMGLAKYAWSGYVIECPNCGVVYRSRQYWFGNQDPVDTVVRTEIVHVWPGTDGFLKDNNNAAQRLLDGMNFMAQSVSELSLGPTKAVTSWLTDQIAPAYWRPNSQILSCNKCATSFKDNDTKHHCRACGEGFCDSCSSKTRPVPERGWGPAPVRVCDNCYEARNVQLAVTEAQVDDEGGTLIARKVGEAVQNTLGAVVTAIDIPLGLVKDAARPAYWVPDHEILHCHNCRKEFSIKLSKHHCRACGQGFCDECSHDRRAVPSRGWDHPVRVCFNCNKKPGDL
stoichiometry N: 2

B2: MBP-DFCP1 112-415 (isolated GTPase domain), wild type (domain or fragment, human, UniProt Q9HBF4 112-415, looked up)
chain: NKRRHPVTVYNVSNLQESLEAEEMDEETKRKKMTEKVVSFLLVDENEEIQVTNEEDFIRKLDCKPDQHLKVVSIFGNTGDGKSHTLNHTFFYGREVFKTSPTQESCTVGVWAAYDPVHKVAVIDTEGLLGATVNLSQRTRLLLKVLAISDLVIYRTHADRLHNDLFKFLGDASEAYLKHFTKELKATTARCGLDVPLSTLGPAVIIFHETVHTQLLGSDHPSEVPEKLIQDRFRKLGRFPEAFSSIHYKGTRTYNPPTDFSGLRRALEQLLENNTTRSPRHPGVIFKALKALSDRFSGEIPDDQ
stoichiometry N: 2

B3: MBP-DFCP1 112-415 R266Q (GTPase domain with the cancer-related mutation R266Q) (domain or fragment, human, UniProt Q9HBF4 112-415, looked up)
chain: NKRRHPVTVYNVSNLQESLEAEEMDEETKRKKMTEKVVSFLLVDENEEIQVTNEEDFIRKLDCKPDQHLKVVSIFGNTGDGKSHTLNHTFFYGREVFKTSPTQESCTVGVWAAYDPVHKVAVIDTEGLLGATVNLSQRTRLLLKVLAISDLVIYQTHADRLHNDLFKFLGDASEAYLKHFTKELKATTARCGLDVPLSTLGPAVIIFHETVHTQLLGSDHPSEVPEKLIQDRFRKLGRFPEAFSSIHYKGTRTYNPPTDFSGLRRALEQLLENNTTRSPRHPGVIFKALKALSDRFSGEIPDDQ
stoichiometry N: 2
